Earlier results on one substance are cited in publication PMC8525647.

The target of the data set is RAG2 (Homo sapiens) (UniProt P55895).
Chain of UniProt P55895 (P55895 whole entry): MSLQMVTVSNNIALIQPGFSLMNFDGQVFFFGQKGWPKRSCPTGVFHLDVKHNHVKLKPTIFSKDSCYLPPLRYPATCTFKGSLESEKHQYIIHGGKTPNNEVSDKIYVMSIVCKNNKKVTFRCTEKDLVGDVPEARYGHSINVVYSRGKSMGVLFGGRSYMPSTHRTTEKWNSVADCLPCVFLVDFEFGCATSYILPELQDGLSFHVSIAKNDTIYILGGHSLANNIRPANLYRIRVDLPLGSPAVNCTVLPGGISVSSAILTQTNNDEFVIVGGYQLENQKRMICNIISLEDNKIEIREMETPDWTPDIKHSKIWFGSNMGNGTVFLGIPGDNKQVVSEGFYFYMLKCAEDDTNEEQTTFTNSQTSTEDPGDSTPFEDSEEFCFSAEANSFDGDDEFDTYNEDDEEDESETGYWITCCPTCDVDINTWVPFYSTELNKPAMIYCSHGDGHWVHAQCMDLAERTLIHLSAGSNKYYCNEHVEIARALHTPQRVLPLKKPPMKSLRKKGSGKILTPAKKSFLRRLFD

As usually defined, the Kd is a measure of binding affinity in units of concentration. As to RAG1 (from UniProt P15918), the Kd was 400 nM.
